In the RNAGym collection of RNA variant scans (doi:10.1073/pnas.2313332121):

B1: TPR t1 (parent)
chain: GACCAAUCUGCCCUCAGAGCUCGAGAACAUCUUCGGAUGCAGAGGAGGCAGGCUUCGGUGGCGCGAUAGCGCCAACGUCCUCAACCUCCAAUGCAUCCCACCACAUGAUGAUGCCUGAAGAGCCUUGGUUUUUUG

Variants of: B1
Assay: polymerase ribozyme fitness, log enrichment relative to wild type (log ratio); higher = more active; in vitro selection for triplet polymerase activity
Method in brief: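 Mutant libraries for each subunit of a heterodimeric triplet polymerase ribozyme were made by PCR and then transcribed. Each library underwent one round of in vitro selection in triplicate: annealing with a biotinylated primer, the partner subunit and triplets, frozen incubation at −7 °C, gel excision of extended constructs, streptavidin-bead capture and RT-PCR. Input and output libraries were Illumina-sequenced, and only genotypes with ≥10 input reads and ≥1 read per output were kept. Fitness is the logarithm, base 2, of genotype enrichment over wild-type enrichment, computed from inverse-variance-weighted replicate averages.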

| Variant | polymerase ribozyme fitness (log ratio) |
| --- | --- |
| GACCAAUCUGCCCUCAGAGCUCGAGAACAUCUUCGGAUGCAGAGGAGGUUGGCUUCGGUGGCGCGAUAGCGCCAACGUCCUCAACCUCCAAUGCAUCCCACCACAUGAUGAUGCCUGAAGAGCCUUGGUUUUUUG [C49U A50U] | -3.59 |
| GACCAAUCUGCCCUCAGAGCUCGAGAACAUCUUCGGAUGCAGAGGAGGGAGGCUUCGGUGGCGCGAUAGCGCCAACGUCCUCAACCUCCAAUGCAUCCCACCACAUGAUGAUGCCGGAAGAGCCUUGGUUUUUUG [C49G U116G] | -2.61 |
| GACCAAUCUGCCCUCAGAGCUCGAGAACAUCUUCGGAUGCAGAGGAGGUGGGCUUCGGUGGCGCGAUAGAGCCAACGUCCUCAACCUCCAAUGCAUCCCACCACAUGAUGAUGCCUGAAGAGCCUUGGUUUUUUG [C49U A50G C70A] | -4.55 |
| GACCAAUCUGCCCUCAGAGCUCGAGAACAUCUUCGGAUGCAGAGGAGGGAGGCUUCGGUGGCGCGAUAGCGCCAACGUCCUCAACCUCCAAUGCAUCCCACCACAUGAUGAUUCCUGAAGAGCCUUGGUUUUUUG [C49G G113U] | -2.52 |
| GACCAAUCUGCCCUCAGAGCUCGAGAACAUCUUCGGAUGCAGAGGAGGGAGGCUUCGGUGGCGCGAUAGCGCCAACGUCCUCAACCUCCAAUGCAUCCCACCACAUGAUGAUACCUGAAGAGCCUUGGUUUUUUG [C49G G113A] | -1.08 |
| GACCAAUCUGCCCUCAGAGCUCGAGAACAUCUUCGGAUGCAGAGGAGGGAGGCCUCGGUGGCCCGAUAGCGCCAACGUCCUCAACCUGCAAUGCAUCCCACCACAGGAUGAUGCCUGAAGAGCCUUGGUUUUUUG [C49G U54C G63C C88G U106G] | -5.67 |
| GACCAAUCUGCCCUCAGAGCUCGAGAACAUCUUCGGAUGCAGAGGAGGGAGGCUUCGGUGGCGCGAUAGCGCCAACGUCCUCAACCUCCAAUCCAUCCCACCACAUGAUGAUGCCUGAAGAGCCUUGGUUUUUUG [C49G G93C] | -1.06 |
| GACCAAUCUGCCCUCAGAGCUCGAGAACAUCUUCGGAUGCAGAGGAGGGAGGCUUCGGUGGCGCGAUAGCGCCAACGUCCUCAACCUCCAAUUCAUCCCACCACAUGAUGAUGCCUGAAGAGCCUUGGUUUUUUG [C49G G93U] | -1.49 |
| GACCAAUCUGCCCUCAGAGCUCGAGAACAUCUUCGGAUGCAGAGGAGGGAGGCUUCGGUGGCGCGAUAGCGCCAACUUCCUCAACCUCCAAUGCGUCCCACCACAUGAUGAUGCCUGAAGAGCCUUGGUUUUUUG [C49G G77U A95G] | -1.23 |
| GACCAAUCUGCCCUCAGAGCUCGAGAACAUCUUCGGAUGCAGAGGAGGGAGGCUUCGGUGGCGCGAUAGCGCCAACUACCUCAAACUCCAAUGCAUCCCACCACAUGAUGAUGCCUGAAGAGCCUUGGUUUUUUG [C49G G77U U78A C85A] | -1.63 |
| GACCAAUCUGCCCUCAGAGCUCGAGAACAUCUUCGGAUGCAGAGGAGGGAGGCUUCGGUGGCGCGAUAUCGCCAACGUCCUCAACCUCCAAUGUAUCCCACCACAUGAUGAUGACUGAAAAGCCUUGGUUUUUUG [C49G G69U C94U C114A G120A] | -1.33 |
| GACCAAUCUGCCCUCAGAGCUCGAGAACAUCUUCGGAUGCAGAGGAGGGAGGCUUCGGUGGCGCGAUAGCACCAACGUCCUCAACCUCCAAUGCAUCCCACCACAUGAUGAUGCCUGAAGAGCGUUGGUUUUUUG [C49G G71A C124G] | 0.642 |
| GACCAAUCUGCCCUCAGAGCUCGAGAACAUCUUCGGAUGCAGAGGAGGUAGGCUUCGGUGGCGCGAUGGCGCCAACGUCCUCAACCUCCAAUGCAUCCCACCACAUGAUGAUGCCUGAAGAGCCUUGGUUUUUUG [C49U A68G] | -4.08 |
| GACCAAUCUGCCCUCAGAGCUCGAGAACAUCUUCGGAUGCAGAGGAGGGAGGCUUCGGUGGCGCGAUAGCGCCAACGGCCUCAACCUCCAAUGCAUCCCACCACAUGAUGAUGCCUGAAGAGCCUUGGUUUUUUG [C49G U78G] | -0.998 |
| GACCAAUCUGCCCUCAGAGCUCGAGAACAUCUUCGGAUGCAGAGGAGGGAGGCUGCGGUGGCGCGAUAGCGCCAACGUCCUCAACCUCAAACGCAUCCCACCACAUGAUGAUGCCUGAAGAGCCUUGGUUUUUUG [C49G U55G C89A U92C] | -5.1 |
| GACCAAUCUGCCCUCAGAGCUCGAGAACAUCUUCGGAUGCAGAGGAGGGAGGCUUCGGUGGCGCGAUAGCGCCAACGUCCUCAACCUCCAAUGCAUCCCACCACAUGAUGAGGCCUGAAGAGCCUUGGUUUUUUG [C49G U112G] | 0.00648 |
| GACCAAUCUGCCCUCAGAGCUCGAGAACAUCUUCGGAUGCAGAGGAGGGAGGCUUCGGUGGCGCGAUAGCGCCAACGUCCUCAACCUCCAAUGCAUCCCACCACAUGAUGAAGCCUGAAGAGCCUUGGUUUUUUG [C49G U112A] | 0.92 |
| GACCAAUCUGCCCUCAGAGCUCGAGAACAUCUUCGGAUGCAGAGGAGGGAGGCUUCGGUGGCGCGAUAGCGCCAACGUCCUCAACCUCCAAUGCAUCCCACCACAUGAUGAGGCCUGAAGAGCCUUGGGUUUUUG [C49G U112G U129G] | -0.483 |
| GACCAAUCUGCCCUCAGAGCUCGAGAACAUCUUCGGAUGCAGAGGAGGGAGGCUUCGGUGGCGCGAUAGCGCCAACGUCCUCAACCUCCAAUGCAUCCCACCACAUGAUGAUGCCUGAAGAACCUUGGUUUUUUG [C49G G122A] | -0.99 |
| GACCAAUCUGCCCUCAGAGCUCGAGAACAUCUUCGGAUGCAGAGGAGGUGGGCUUCGGUGGCGCGAUAGCGCCAACGCCCUCAACCUCCAAUGCAUCCCACCACAUGAUGAUGCAUGAAGAGCCUUGGUUUUUUG [C49U A50G U78C C115A] | -1.98 |
| GACCAAUCUGCCCUCAGAGCUCGAGAACAUCUUCGGAUGCAGAGGAGGGAGGCUUCGGUGGCGCGAUAGCUCCAACGUCCUCAACCUCCAAUGCAUCCCACCACAUGAUGAUGCCUGAAGAGCCUUGGUUUUUUG [C49G G71U] | -1.7 |

| Variant | polymerase ribozyme fitness (log ratio) |
| --- | --- |
| GACCAAUCUGCCCUCAGAGCUCGAGAACAUCUUCGGAUGCAGAGGAGGGAGGCUUCGGUGGCGCGAUAGCACCAACGUCCUCAACCUCCAAUGCAUCCCACCACAUGAUGAUGCCUGAAGAGCCUUGGUUUUUUG [C49G G71A] | -0.461 |
| GACCAAUCUGCCCUCAGAGCUCGAGAACAUCUUCGGAUGCAGAGGAGGUAGGCUUCGGUGGCGCGGUAGCGCCAACGUCCUCAACCUCCAAUGCAUCCCACCACAUGAUGAUGCCUGAAGAGCCUUGGUUUUUUG [C49U A66G] | -1.95 |
| GACCAAUCUGCCCUCAGAGCUCGAGAACAUCUUCGGAUGCAGAGGAGGGAGGCUUCGGUGGCGCGAUAGCGCCAACGUCCCCAACCUCCAAUGCAUCCCACCACAUGAUGAUGCCUGAAGAGCCUUGGUUUUUUG [C49G U81C] | -3.21 |
| GACCAAUCUGCCCUCAGAGCUCGAGAACAUCUUCGGAUGCAGAGGAGGUCGGCUUCGGUGGCGCGAUAACGCCAACGUCCUCAACCUCCAAUGCAUCCCACCACAUGAUGAUGCCUGAAGAGCCUUGGUUUUUUU [C49U A50C G69A G135U] | -3.24 |
| GACCAAUCUGCCCUCAGAGCUCGAGAACAUCUUCGGAUGCAGAGGAGGGAGGCUUCGGUGGCGCGAUAGCACCAACGUCCUCAACCUCCAAUGCAUCCCACCACAUGAUGAAGCCUGAAGAGCCUUGGUUUUUUG [C49G G71A U112A] | -1.11 |
| GACCAAUCUGCCCUCAGAGCUCGAGAACAUCUUCGGAUGCAGAGGAGGUAGGCUUCGGUGGCGCGAUAGCGCCAACGUCCUCAACCUCCAAUGCAUCCCACCACAUGAUGAUGCCUGAAGAGCCUUGGUUUUUUG [C49U] | -0.473 |
| GACCAAUCUGCCCUCAGAGCUCGAGAACAUCUUCGGAUGCAGAGGAGGUAGGCUUCGGUGGCGCGAUAGCGCCAACGUCCUCACCCUCCAAUGCAUCCCACCACAUGAUGAUGCCUGAAGAGCCUUGGUUUUUUG [C49U A84C] | -1.9 |
| GACCAAUCUGCCCUCAGAGCUCGAGAACAUCUUCGGAUGCAGAGGAGGGAGGCUUCGGUGGCGCGAUAGCGCCAACGUCCUCAACCUCCAAUGCAUCCCACCACAUGAUUAUGCCUGAAGAGCCUUGGUUUUUUG [C49G G110U] | -2.51 |
| GACCAAUCUGCCCUCAGAGCUCGAGAACAUCUUCGGAUGCAGAGGAGGUAGGCUUCGGUGGCGCGAUAGCGCCCACGUCCUCAACCUCCAAUGCAUCCCACCACAUGAUGAUGCCUGAAGAACCUUGGUUUUUUG [C49U A74C G122A] | -1.62 |
| GACCAAUCUGCCCUCAGAGCUCGAGAACAUCUUCGGAUGCAGAGGAGGGAGGCUUCGGUGGCGCGAUACCGCCAACGUCCUCAACCUCCAAUGCAUCCCACCACAUGAUGAUGCCUGAAGAGCCGUGGUUUUUUG [C49G G69C U125G] | -3.42 |
| GACCAAUCUGCCCUCAGAGCUCGAGAACAUCUUCGGAUGCAGAGGAGGGAGGCAUCGGUGGCGCGAUAGCGCCAACGUCCUCAACCUCCAAUGCAUCCCACCACAUGAUGAUGCCUGAAGAGCCUUGGUUUUUUG [C49G U54A] | 0.0212 |
| GACCAAUCUGCCCUCAGAGCUCGAGAACAUCUUCGGAUGCAGAGGAGGGAGGCUUCGGUGGCGCGAUAGCGCCAACGUCCUCAACCUCCAAUGCAUCCCACCACAUGAUGAUGCCUGAAAAGCCUUGGUUUUUUG [C49G G120A] | 0.175 |
| GACCAAUCUGCCCUCAGAGCUCGAGAACAUCUUCGGAUGCAGAGGAGGGAGGCUUCGGUGGCGCGAUAGCGCCAACGUCCUCAACCUCCAAUGCAUCCCACCACAUGAUGAUGCCUGAACAGCCUUGGUUUUUUG [C49G G120C] | 1.11 |
| GACCAAUCUGCCCUCAGAGCUCGAGAACAUCUUCGGAUGCAGAGGAGGUAGGCUUCGGUGGCGCGAUAGCGCCAACGUCCUCAACCUCCAUUGCAUCCCACCACAUGAUGAUGCAUGAAGAGCCUUGGUUUUUUG [C49U A91U C115A] | -2.58 |
| GACCAAUCUGCCCUCAGAGCUCGAGAACAUCUUCGGAUGCAGAGGAGGGAGGCUUCGGUGGCGCGAUAGCGCCAACGCCCUCAACCUCCAAUGCCUCCCACCACAUGAUGAUGCCUGAAGAGCCUUGGUUUUUUG [C49G U78C A95C] | -2.13 |
| GACCAAUCUGCCCUCAGAGCUCGAGAACAUCUUCGGAUGCAGAGGAGGGAGGCUUCGGUGGCGCGAUAGCGCCAACGUCCUCAACCUCCAAUGCAUCCCACCACAUGAUGAUGCCUGAAGAUCGUUGGUUUUUUG [C49G G122U C124G] | -1.12 |
| GACCAAUCUGCCCUCAGAGCUCGAGAACAUCUUCGGAUGCAGAGGAGGGAGGCUUCGGUGGCGCGAUAGCGCCAACGUCCUCAACCUCCAAUUAAUCCCACCACAUGAUGAUGCCUGAAGAGCCUUGGUUUUUUG [C49G G93U C94A] | -3.18 |
| GACCAAUCUGCCCUCAGAGCUCGAGAACAUCUUCGGAUGCAGAGGAGGGAGGCUUCGGUGGCGCGAUAGCGCCAACGUCCUCAACCUCCAAUGCAUCCCACCACAUGAUAAUGCCUGAAGCGCCUUGGUUUUUUG [C49G G110A A121C] | -1.76 |
| GACCAAUCUGCCCUCAGAGCUCGAGAACAUCUUCGGAUGCAGAGGAGGGAGGCUUCGGUGGCUCGAUAGCGCCAACGUCCUCAACCUCCAAUGCAGCCCACCACAUGAUGAUGCCUGAAGAGCCUUGGUUUUUUG [C49G G63U U96G] | -2.68 |
| GACCAAUCUGCCCUCAGAGCUCGAGAACAUCUUCGGAUGCAGAGGAGGGAGGCUUCGGUGGCGCGAUAGCGCCAACGUCCUCAACCUCCAAAGCAUCCCACCACAUGAUGAUGCCUGAAGAGGCUUGGUUUUUUG [C49G U92A C123G] | -3.27 |
| GACCAAUCUGCCCUCAGAGCUCGAGAACAUCUUCGGAUGCAGAGGAGGGAGGCUUCGGUGGCCCGAUAGCGCCAACGUCCUCAACCUCCAAUGCAUCCCACCACAUGAUGGUGCCUGAAAAGCCUUGGUUUUUUG [C49G G63C A111G G120A] | -2.1 |
